Measured values: patent US20100247590A1, “Peptide-Based Systems For Delivery Of Cosmetic Agents” (JOHNSON & JOHNSON, priority 2009, published 2010)

B1: MASGSDPS-Hair2-GPEPEPEPEPIPEPPKEAPVVIEKPKPKPKPKPKPPA-Gray3-GSGGGGSP-HHHHHH (peptide)
chain: MASGSDPSAQSQLPDKHSGLHERAPQRYGPEPEPEPEPIPEPPKEAPVVIEKPKPKPKPKPKPPAHDHKNQKETHQRHAAGSGGGGSPHHHHHH
B2: MASGSDPS-Hair2Rnd1-GPEPEPEPEPIPEPPKEAPVVIEKPKPKPKPKPKPPA-Gray3Rnd4-GSGGGGSP-HHHHHH (peptide)
chain: MASGSDPSDRSKLYQSLEHRQPPGAHAQGPEPEPEPEPIPEPPKEAPVVIEKPKPKPKPKPKPPAAHDAKHEHRKQNHTQGSGGGGSPHHHHHH

How the values were obtained:
[1] = Peptide-mediated binding of Co-NTA magnetic beads to gray hair, visual rating on magnet; parameters: species or system human
Protocol: Approximately 5 mg of 5 mm long hair strands (90% gray, human) were transferred to 2-mL microcentrifuge tubes. Approximately 1 mL of TBST0.1 buffer (25 mM Tris, 150 mM NaCl, pH7.2, with 0.1% TWEEN®-20) or the same buffer including varying concentrations of HC263 peptide was added to the hair.
The mixtures were shaken on a Nutator for one hour at room temperature (˜22° C.). The hairs were washed three times with TBST0.5 buffer (25 mM Tris, 150 mM NaCl, pH 7.2, with 0.5% TWEEN®-20). After washing, the hairs were resuspended in 900 μL Talon buffer (50 mM sodium phosphate, pH 8.0, 300 mM sodium chloride, 0.01% TWEEN®-20). A subset of hair/peptide conjugates were washed additionally one time with 1 mL of 0.25% SLES (Sodium Lauryl Ether Sulfate) for 5 min at room temperature on the Nutator, then washed two times with 1 mL TBST0.1 buffer. Approximately 0.2 mg of TALON™ beads (DYNABEADS® TALONT™, Invitrogen, Catalog#101.01D) were washed twice with TALON™ buffer on the DYNAL® MPC™ magnet and added to each reaction in 100 μL TALON™ buffer. The magnetic beads were coated with Co-NTA, which specifically binds to the six histidine residues incorporated into the peptide (C-terminal his tag). The hair and beads were incubated for 10 minutes with gentle shaking before the tubes were placed on the magnet.
Beads binding to the hair were expected to co-migrate on the sides of the tubes once applied to the magnet. The strength of binding was visually assessed and rated on a scale of 0 (little or no observed binding) to 5 (highest amount of observed binding).
The hair binding assay of Example 3 was used to assess the strength of binding of the test peptides in Table 10.

[2] = HC263-mediated binding of magnetic beads to surfaces, SEM score: yak hair; conditions: surface yak hair, 0.2 μM HC263
Protocol: (§1) Peptide HC263 (SEQ ID NO: 196) was tested for peptide-mediated binding of magnetic beads to various surfaces: human hair, yak hair, wool, cotton, SONTARA® (a nonwoven, spunlaced textile sheet fabric, E.I. duPont de Nemours and Company, Inc., Wilmington, Del.), and cellulose (filter paper). Approximately 5 mg of human hair (90% gray), yak hair, wool, cotton, SONTARA®, or filter paper were added to 2-mL microcentrifuge tubes. Approximately 1 mL of TBST0.1 buffer (25 mM Tris, 150 mM NaCl, pH 7.2, with 0.1% TWEEN®-20) containing 0.2 μM HC263 was added. The mixtures were shaken on a Nutator (BD Diagnostics, Franklin Lakes, N.J.) for 30 minutes at room temperature (˜22° C.). The samples were washed three times with TBST0.5 buffer (25 mM Tris, 150 mM NaCl, pH 7.2, with 0.5% TWEEN®-20). After washing, the samples were re-suspended in 900 μL TALON™ (Clontech, Mountain View, Calif.) buffer (50 mM sodium phosphate, pH 8.0, 300 mM sodium chloride, 0.01% TWEEN®-20). Approximately 0.2 mg of TALON™ beads (DYNABEADS® TALON™, Invitrogen, Carlsbad, Calif.; Catalog#101.01D) were washed twice with TALON™ buffer on the DYNAL® MPC™ magnet (Invitrogen) and added to each reaction in 100-μL TALON™ buffer.
(§2) The strength of binding of the magnetic beads to the various surfaces was evaluated by visualization of scanning electron microscope (SEM) images taken at 1000-fold magnification.

[3] = HC263-mediated binding of magnetic beads to surfaces, SEM score: wool; conditions: surface wool, 0.2 μM HC263
Protocol: as §1, §2

[4] = HC263-mediated binding of magnetic beads to surfaces, SEM score: cotton; conditions: surface cotton, 0.2 μM HC263
Protocol: as §1, §2

[5] = HC263-mediated binding of magnetic beads to surfaces, SEM score: SONTARA; conditions: surface SONTARA, 0.2 μM HC263
Protocol: as §1, §2

[6] = HC263-mediated binding of magnetic beads to surfaces, SEM score: cellulose; conditions: surface cellulose (filter paper), 0.2 μM HC263
Protocol: as §1, §2

| Molecule | Strength of binding (5 highest, 0 lowest) ([1]; Table 9, peptide 0.002 μM, no SLES wash) | Strength of binding (5 highest, 0 lowest) ([1]; Table 11, peptide 0.002 μM) | Strength of binding (5 highest, 0 lowest) ([1]; Table 11, peptide 0.02 μM) | Strength of binding (5 highest, 0 lowest) ([1]; Table 11, peptide 0.2 μM) | Strength of binding (5 highest, 0 lowest) [2] | Strength of binding (5 highest, 0 lowest) [3] | Strength of binding (5 highest, 0 lowest) [4] | Strength of binding (5 highest, 0 lowest) [5] | Strength of binding (5 highest, 0 lowest) [6] |
| --- | --- | --- | --- | --- | --- | --- | --- | --- | --- |
| B1 | 2 | 2 | 5 | 5 | 1 | 0 | 0 | 0 | 0 |
| B2 |  | 2 | 5 | 5 |  |  |  |  |  |
